Assay results as given in WO2016059602A2 (dated 2016).

Assays:
human HER3 receptor = human HER3 receptor (human, UniProt P21860 20-1342); assay: cell-based or functional assay
[1] = target: T1, full-length human HER3 extracellular domain (ECD) (human, UniProt P21860 20-643); assay: BIACORE, antibody captured on protein A, HER3 ECD as analyte, 25 C, 1:1 model
T1 construct: also called human HER3 ECD; HER3 ECD full length

[2] = target: T2, full-length rat HER3 extracellular domain (ECD) (rat, UniProt Q62799 20-643); assay: BIACORE, antibody captured on protein A, rat HER3 ECD as analyte, 25 C, 1:1 model
T2 construct: extracellular domain; also called Rat HER3 ECD
T2 sequence (Q62799 20-643): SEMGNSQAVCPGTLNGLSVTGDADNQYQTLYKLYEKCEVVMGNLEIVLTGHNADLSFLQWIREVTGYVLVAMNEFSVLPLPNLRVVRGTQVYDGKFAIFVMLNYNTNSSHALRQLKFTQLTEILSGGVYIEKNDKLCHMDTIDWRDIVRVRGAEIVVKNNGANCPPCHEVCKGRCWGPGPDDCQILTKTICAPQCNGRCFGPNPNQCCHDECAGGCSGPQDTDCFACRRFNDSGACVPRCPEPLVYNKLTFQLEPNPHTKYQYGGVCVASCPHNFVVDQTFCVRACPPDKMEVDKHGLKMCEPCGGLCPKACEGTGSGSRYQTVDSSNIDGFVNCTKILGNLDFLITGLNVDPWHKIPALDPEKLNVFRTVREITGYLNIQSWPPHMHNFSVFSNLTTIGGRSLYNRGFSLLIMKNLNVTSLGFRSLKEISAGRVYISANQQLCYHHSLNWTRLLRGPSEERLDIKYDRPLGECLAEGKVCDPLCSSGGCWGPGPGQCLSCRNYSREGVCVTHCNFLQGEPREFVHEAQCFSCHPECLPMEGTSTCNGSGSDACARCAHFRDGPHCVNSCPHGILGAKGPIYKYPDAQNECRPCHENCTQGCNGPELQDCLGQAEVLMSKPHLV

T1 sequence (P21860 20-643): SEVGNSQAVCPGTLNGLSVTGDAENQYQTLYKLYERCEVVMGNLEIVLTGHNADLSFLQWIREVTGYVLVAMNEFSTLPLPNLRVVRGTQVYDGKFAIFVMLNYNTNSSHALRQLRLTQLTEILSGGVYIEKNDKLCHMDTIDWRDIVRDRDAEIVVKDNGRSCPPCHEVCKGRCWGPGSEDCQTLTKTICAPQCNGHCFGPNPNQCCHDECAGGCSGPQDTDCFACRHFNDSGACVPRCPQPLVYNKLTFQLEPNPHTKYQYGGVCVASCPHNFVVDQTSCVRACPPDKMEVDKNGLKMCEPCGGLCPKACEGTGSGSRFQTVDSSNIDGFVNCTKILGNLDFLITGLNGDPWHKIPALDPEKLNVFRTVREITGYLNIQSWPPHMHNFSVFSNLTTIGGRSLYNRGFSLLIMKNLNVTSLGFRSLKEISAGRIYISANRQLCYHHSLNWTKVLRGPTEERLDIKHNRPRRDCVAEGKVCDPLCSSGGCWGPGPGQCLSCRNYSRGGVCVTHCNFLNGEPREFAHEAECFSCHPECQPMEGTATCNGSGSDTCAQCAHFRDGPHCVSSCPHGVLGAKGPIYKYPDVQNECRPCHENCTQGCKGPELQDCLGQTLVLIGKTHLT
Sequence of human HER3 receptor (P21860 20-1342 limits assumed): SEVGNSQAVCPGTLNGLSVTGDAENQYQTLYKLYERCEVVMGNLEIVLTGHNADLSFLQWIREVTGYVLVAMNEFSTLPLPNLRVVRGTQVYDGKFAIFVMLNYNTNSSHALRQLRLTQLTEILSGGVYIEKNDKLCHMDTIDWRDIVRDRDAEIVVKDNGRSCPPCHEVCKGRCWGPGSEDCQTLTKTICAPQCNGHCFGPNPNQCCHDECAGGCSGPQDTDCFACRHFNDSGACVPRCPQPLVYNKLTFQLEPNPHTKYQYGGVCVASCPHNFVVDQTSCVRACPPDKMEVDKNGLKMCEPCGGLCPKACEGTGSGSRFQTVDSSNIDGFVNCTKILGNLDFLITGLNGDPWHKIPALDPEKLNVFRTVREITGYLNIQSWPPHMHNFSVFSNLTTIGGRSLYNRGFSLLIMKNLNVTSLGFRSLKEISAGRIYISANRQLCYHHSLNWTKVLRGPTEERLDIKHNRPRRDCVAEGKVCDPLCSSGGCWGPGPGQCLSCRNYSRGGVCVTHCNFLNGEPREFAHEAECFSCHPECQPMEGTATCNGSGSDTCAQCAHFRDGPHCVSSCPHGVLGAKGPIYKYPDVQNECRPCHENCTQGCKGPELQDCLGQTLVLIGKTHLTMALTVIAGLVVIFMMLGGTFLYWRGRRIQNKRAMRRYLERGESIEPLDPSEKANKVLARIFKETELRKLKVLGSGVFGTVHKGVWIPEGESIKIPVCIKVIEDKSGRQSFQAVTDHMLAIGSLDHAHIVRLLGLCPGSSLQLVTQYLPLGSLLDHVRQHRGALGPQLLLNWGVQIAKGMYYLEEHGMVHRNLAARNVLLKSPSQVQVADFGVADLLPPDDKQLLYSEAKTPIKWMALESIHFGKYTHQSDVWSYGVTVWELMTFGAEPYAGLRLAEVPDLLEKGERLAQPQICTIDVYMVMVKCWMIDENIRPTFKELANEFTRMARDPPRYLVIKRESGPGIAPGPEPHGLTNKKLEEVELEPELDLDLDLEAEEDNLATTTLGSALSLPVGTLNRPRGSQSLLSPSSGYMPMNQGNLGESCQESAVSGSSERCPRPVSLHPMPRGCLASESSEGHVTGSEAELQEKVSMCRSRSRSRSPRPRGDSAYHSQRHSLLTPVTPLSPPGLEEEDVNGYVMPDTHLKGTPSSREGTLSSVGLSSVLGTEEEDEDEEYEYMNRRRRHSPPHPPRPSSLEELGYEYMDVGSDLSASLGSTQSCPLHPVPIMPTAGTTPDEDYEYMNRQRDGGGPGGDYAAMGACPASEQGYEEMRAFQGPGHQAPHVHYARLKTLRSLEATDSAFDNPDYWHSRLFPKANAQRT

Phospho-HER3 ELISA IC50, heregulin induced HER3 phosphorylation, BxPC3 cells (human HER3 receptor)	Phospho-HER3 ELISA IC50, heregulin induced HER3 phosphorylation, CHL-1 cells (human HER3 receptor)	Phospho-HER3 ELISA IC50, heregulin induced HER3 phosphorylation, N87 cells (human HER3 receptor)	Phospho-HER3 ELISA IC50, heregulin induced HER3 phosphorylation, SK-BR-3 cells (human HER3 receptor)	Kd [1]	koff [1]	kon [1]	Kd [2]	koff [2]	kon [2]	IC50, ligand (EGF, betacellulin or heregulin) induced HER3 receptor phosphorylation, SK-BR-3 cells (human HER3 receptor)	Phospho-HER3 ELISA IC50, heregulin induced HER3 phosphorylation, BT-474 cells (human HER3 receptor)	Phospho-HER3 ELISA IC50, heregulin induced HER3 phosphorylation, MCF7 cells (human HER3 receptor)	Binder
0.0056 µg/mL	0.0282 µg/mL	0.0175 µg/mL	0.0034 µg/mL	2.01 nM	0.00223 s⁻¹	1.11e+06 M⁻¹ s⁻¹	3.37 nM	0.0011 s⁻¹	326000 M⁻¹ s⁻¹	–	–	–	humanized 1D9 POTELLIGENT antibody (antibody, human IgG1, kappa, V domains shown, also called humanized 1D9 H6L2 POTELLIGENT antibody; humanized POTELLIGENT antibody) VH: QVQLVQSGAEVKKPGASVKVSCKASGYTFTSYWMHWVRQAPGQGLEWMGVIDPSDGYSHYNQKFKGKVTLTVDTSISTAYMELSRLRSDDTAVYYCAGGLAGTLDYWGQGTTVTVSS VL: DIQMTQSPSSLSASVGDRVTITCRSSQSIVHSSGNTYLQWFQQKPGKAPKLLIYKVSNRFSGVPSRFSGSGSGTDFTLTISSLQPEDFAVYYCFQGSHVPWTFGQGTKLEIKR
0.0116 µg/mL	0.0365 µg/mL	0.0218 µg/mL	0.0036 µg/mL	–	–	–	–	–	–	–	–	–	humanized 1D9 antibody (antibody, human IgG1, kappa, V domains shown) VH: QVQLVQSGAEVKKPGASVKVSCKASGYTFTSYWMHWVRQAPGQGLEWMGVIDPSDGYSHYNQKFKGKVTLTVDTSISTAYMELSRLRSDDTAVYYCAGGLAGTLDYWGQGTTVTVSS VL: DIQMTQSPSSLSASVGDRVTITCRSSQSIVHSSGNTYLQWFQQKPGKAPKLLIYKVSNRFSGVPSRFSGSGSGTDFTLTISSLQPEDFAVYYCFQGSHVPWTFGQGTKLEIKR
0.0107 µg/mL	0.0399 µg/mL	0.0297 µg/mL	0.0044 µg/mL	4.49 nM	0.00122 s⁻¹	271000 M⁻¹ s⁻¹	–	–	–	–	–	–	humanized 1D9 Fc disabled antibody (antibody, V domains shown, also called humanized 1D9 H6L2 Fc disabled antibody) VH: QVQLVQSGAEVKKPGASVKVSCKASGYTFTSYWMHWVRQAPGQGLEWMGVIDPSDGYSHYNQKFKGKVTLTVDTSISTAYMELSRLRSDDTAVYYCAGGLAGTLDYWGQGTTVTVSS VL: DIQMTQSPSSLSASVGDRVTITCRSSQSIVHSSGNTYLQWFQQKPGKAPKLLIYKVSNRFSGVPSRFSGSGSGTDFTLTISSLQPEDFAVYYCFQGSHVPWTFGQGTKLEIKR
0.0068 µg/mL	0.0406 µg/mL	0.0204 µg/mL	0.0032 µg/mL	–	–	–	–	–	–	~0.003 µg/mL	0.0223 µg/mL	0.0104 µg/mL	murine 1D9 antibody (M5.1D9.1F5) (antibody, V domains shown) VH: QVQLQQPGAELVRPGTSVKLSCKASGYTFTSYWMHWVKQRPGQGLEWIGVIDPSDGYSHYNQKFKGKATLTVDTSSSTAYMQLSSLTSEDSAVYYCAGGLAGTLDYWGQGTTLTVSS VL: DVLMTQTPLSLPVSLGDQASISCRSSQSIVHSSGNTYLQWFLQKPGQSPKLLISKVSNRFSGVPDRFSGSGSGTDFTLRISRVEAEDLGLYYCFQGSHVPWTFGGGTKLEIK
0.0541 µg/mL	0.138 µg/mL	0.0533 µg/mL	0.0191 µg/mL	–	–	–	–	–	–	–	0.12 µg/mL	0.0593 µg/mL	murine 15D5 antibody (M5.15D5.2A1.1H10) (antibody, V domains shown) VH: EFQLQQSGPELVKPGASVKISCKASGYSFTDYNMNWVKQNNGKSLEWIGGINPNYGTTVYNQKFKGKATLTVDQSSSTAYMQLVSLTSEDSAVYYCARMTTIVPFDYWGQGTTLTVSS VL: DIQMTQTTFSLSASLGDRVTISCRASQDISNYLNWYQQKPDGTVKLLIYYTSTLHSGVPSRFSGSGSGTDYFLTIRNLEEEDIATYFCQQGYTLPWTFGGGTKLDIK
